What was measured:
[1] = biological target: Menangle virus P protein C-terminal region, P209-388 (coiled-coil, linker and binding domain) (Menangle virus); experiment: SEC-MALLS
[2] = biological target: Menangle virus P protein C-terminal region, P209-388 (coiled-coil, linker and binding domain) (Menangle virus); experiment: AUC

Menangle virus P protein C-terminal region, P209-388 (coiled-coil, linker and binding domain) (domain or fragment)
stoichiometry N [1]: 4
Kd [2]: 58 nM
stoichiometry N [2]: 4

Reference: paper PMC8472933
